Target: recombinant flounder IL-2 receptor beta, GST-tagged (GST-rfIL-2Rβ) (flounder (Paralichthys olivaceus))

percentage of CD4-1+ T lymphocytes in cultured flounder PBLs (FCM, 72 h), PHA + rfIL-2 after blocking with anti-rfIL-2Rβ polyclonal antibodies (order of 'respectively' assumed): 12.6%
percentage of CD4-1+ T lymphocytes in cultured flounder PBLs (FCM, 72 h), PHA + rfIL-2 group without blocking antibodies: 19.2%
percentage of CD4-1+ T lymphocytes in cultured flounder PBLs (FCM, 72 h), PHA + rfIL-2 with anti-rfIL-2 polyclonal antibodies (order of 'respectively' assumed): 7.2%
percentage of CD4-2+ T lymphocytes in cultured flounder PBLs (FCM, 72 h), PHA + rfIL-2 after blocking with anti-rfIL-2Rβ polyclonal antibodies (order of 'respectively' assumed): 11%
percentage of CD4-2+ T lymphocytes in cultured flounder PBLs (FCM, 72 h), PHA + rfIL-2 group without blocking antibodies: 14.5%
percentage of CD4-2+ T lymphocytes in cultured flounder PBLs (FCM, 72 h), PHA + rfIL-2 with anti-rfIL-2 polyclonal antibodies (order of 'respectively' assumed): 8.8%
percentage of IL-2Rβ+ cells in cultured flounder PBLs (FCM, 72 h), PHA + rfIL-2 after blocking with anti-rfIL-2Rβ polyclonal antibodies: 17.8%
percentage of IL-2Rβ+ cells in cultured flounder PBLs (FCM, 72 h), PHA + rfIL-2 group without blocking antibodies: 26.8%
percentage of IL-2Rβ+ cells in cultured flounder PBLs (FCM, 72 h), PHA + rfIL-2 with anti-rfIL-2 polyclonal antibodies: 13.3%
Substance: recombinant flounder IL-2 protein, His-tagged (His-rfIL-2) (ligand)

From PMC7509493
